# According to US20190048080A1 (SHANGHAI KANDA BIOTECHNOLOGY, published 2019):
# T1: recombinant human CTLA-4-Fc fusion protein (R&D Systems) (human, UniProt P16410 37-162)
# T1 construct: range 37-162; also called fusion protein CTLA-4/Fv; recombinant protein CTLA-4; not shown: IgG constant region (Fc) of the bought fusion protein
# T1 sequence (looked up): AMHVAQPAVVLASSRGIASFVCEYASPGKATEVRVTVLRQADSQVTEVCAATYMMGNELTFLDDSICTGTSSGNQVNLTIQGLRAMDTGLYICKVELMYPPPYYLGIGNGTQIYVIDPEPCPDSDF
# B1: human anti-CTLA-4 single-chain variable region (scFv) antibody (scFv)
# scFv: QVQLVQSGGGVVQPGRSLRLSCAASGFTFSSYGMHWVRQAPGKGLEWVAVIWYDGSRQYYADSVKGRFTISRDDSKNTMYLQMNSLRAEDTAVYYCARGGFWGAFDIWGQGTMVTVSSGSGGGGSDVVMTQSPGTLSLSPGEGATLSCRASQHVISSYLAWYQQKPGQAPRLLVYGASSRDTGVSDRFTGSGSGTDFTLTISRLEPEDSAVYFCQQYGTSPWTFGQGTKLEIKR
# notes: also called anti-CTLA-4 scFv; CTLA-4scFv
# Molecular target: T1, recombinant human CTLA-4-Fc fusion …
# Test: phage display panning on coated CTLA-4/Fc, then ELISA of purified scFv on coated recombinant CTLA-4
binder,measurement,value
B1,binding result,binds
